“And” between values parts separate entries of the source, which are not always exact repeats. Equal values may be shown once. Read-outs that look alike come from different tables or passages of the source.
What was measured:
Experiment in all cases: SPR
[1] = biological target: V2 fHbp Gln191 mutant (to Ala) (Neisseria meningitidis)
[2] = biological target: V2 fHbp Leu199 mutant (to Ala) (Neisseria meningitidis)
[3] = biological target: V2 fHbp Ser302 mutant (to Ala) (Neisseria meningitidis)
[4] = biological target: V2 fHbp Glu262 mutant (to Ala) (Neisseria meningitidis)
[5] = biological target: V2 fHbp Lys264 mutant (to Ala) (Neisseria meningitidis)
[6] = biological target: V2 fHbp Thr304 mutant (to Ala) (Neisseria meningitidis)
[7] = biological target: V3 fHbp (V3.p28), wild type (Neisseria meningitidis) (UniProt E6MV22)
[8] = biological target: V2 fHbp Lys268 mutant (to Ala) (Neisseria meningitidis)
[9] = biological target: V2 fHbp Val196 mutant (to Ala) (Neisseria meningitidis)
[10] = biological target: V2 fHbp His203 mutant (to Ala) (Neisseria meningitidis)
[11] = biological target: V2 fHbp (V2.p21), wild type (Neisseria meningitidis) (UniProt E6MV22)
[12] = biological target: V2 fHbp Val311 mutant (to Ala) (Neisseria meningitidis)
[13] = biological target: V1 fHbp (V1.p1), wild type (Neisseria meningitidis) (UniProt Q9JXV4)
[14] = biological target: V3 fHbp Gly49 mutant (to Ala) (Neisseria meningitidis) (UniProt E6MV22)
[15] = biological target: V3 fHbp Ser44 mutant (to Ala) (Neisseria meningitidis)
[16] = biological target: V3 fHbp Val91 mutant (to Ala) (Neisseria meningitidis)
[17] = biological target: V3 fHbp Thr128 mutant (to Ala) (Neisseria meningitidis)
[18] = biological target: V3 fHbp His190 mutant (to Ala) (Neisseria meningitidis)
[19] = biological target: V3 fHbp Lys32 mutant (to Ala) (Neisseria meningitidis)
[20] = biological target: V3 fHbp Val114 mutant (to Ala) (Neisseria meningitidis)
[21] = biological target: V3 fHbp Lys127 mutant (to Ala) (Neisseria meningitidis)
[22] = biological target: V3 fHbp Gln87 mutant (to Ala) (Neisseria meningitidis) (UniProt E6MV22)
[23] = biological target: V3 fHbp Asp126 mutant (to Ala) (Neisseria meningitidis)
[24] = biological target: V3 fHbp (V3.p28), wild type (Neisseria meningitidis) (UniProt E6MV22); remark: listed apart in the source
[25] = biological target: V3 fHbp Leu98 mutant (to Ala) (Neisseria meningitidis)
[26] = biological target: V3 fHbp Asn48 mutant (to Ala) (Neisseria meningitidis)
[27] = biological target: V3 fHbp Pro125 mutant (to Ala) (Neisseria meningitidis)
[28] = biological target: V3 fHbp Ile96 mutant (to Ala) (Neisseria meningitidis)
[29] = biological target: V3 fHbp Pro46 mutant (to Ala) (Neisseria meningitidis)
[30] = biological target: V3 fHbp Asn123 mutant (to Ala) (Neisseria meningitidis)
[31] = biological target: V3 fHbp Asp43 mutant (to Ala) (Neisseria meningitidis)
[32] = biological target: V3 fHbp Gln134 mutant (to Ala) (Neisseria meningitidis) (UniProt E6MV22)
[33] = biological target: V3 fHbp Ile89 mutant (to Ala) (Neisseria meningitidis) (UniProt E6MV22)
[34] = biological target: V1 fHbp (V1.p1), wild type (Neisseria meningitidis) (UniProt Q9JXV4); remark: listed apart in the source
[35] = biological target: V2 fHbp Gln191 mutant (to Ala) (Neisseria meningitidis); remark: listed apart in the source
[36] = biological target: V2 fHbp Leu199 mutant (to Ala) (Neisseria meningitidis); remark: listed apart in the source
[37] = biological target: V2 fHbp Ser302 mutant (to Ala) (Neisseria meningitidis); remark: listed apart in the source
[38] = biological target: V1 fHbp Lys191-Ala (Neisseria meningitidis)
[39] = biological target: V1 fHbp Arg195-Ala (Neisseria meningitidis)
[40] = biological target: V2 fHbp Glu262 mutant (to Ala) (Neisseria meningitidis); remark: listed apart in the source
[41] = biological target: V2 fHbp Lys264 mutant (to Ala) (Neisseria meningitidis); remark: listed apart in the source
[42] = biological target: V2 fHbp Thr304 mutant (to Ala) (Neisseria meningitidis); remark: listed apart in the source
[43] = biological target: V3 fHbp (V3.p28), wild type (Neisseria meningitidis) (UniProt E6MV22); remark: listed apart in the source
[44] = biological target: V2 fHbp Lys268 mutant (to Ala) (Neisseria meningitidis); remark: listed apart in the source
[45] = biological target: V2 fHbp Val196 mutant (to Ala) (Neisseria meningitidis); remark: listed apart in the source
[46] = biological target: V2 fHbp His203 mutant (to Ala) (Neisseria meningitidis); remark: listed apart in the source
[47] = biological target: V1 fHbp Ile196-Ala (Neisseria meningitidis)
[48] = biological target: V1 fHbp Gln193-Ala (Neisseria meningitidis)
[49] = biological target: V1 fHbp Phe194-Ala (Neisseria meningitidis)
[50] = biological target: V2 fHbp Val311 mutant (to Ala) (Neisseria meningitidis); remark: listed apart in the source
[51] = biological target: V1 fHbp (V1.p1), wild type (Neisseria meningitidis) (UniProt Q9JXV4); remark: listed apart in the source
[52] = biological target: V1 fHbp His203-Ala (Neisseria meningitidis)

For “human factor H CCP 6 and 7 (fH67) (domain or fragment)”, the Kd [1] was 2.6 nM, the Kd [2] was 15.5 nM and the Kd [3] was 4.05 nM. It also gave a Kd [4] of 5.3 nM, a Kd [5] of 9.05 nM and a Kd [6] of 8.2 nM. It also gave a Kd [7] of 2.95 nM, a Kd [8] of 2.25 nM and a Kd [9] of 23 nM. For the same substance, the Kd [10] was 2.65 nM, the Kd [11] was 2.15 nM and 1.85 nM and the Kd [12] was 7.45 nM. The Kd [13] was 2.85 nM, the Kd [14] was 3 nM and the Kd [15] was 10 nM and 9.8 nM. The Kd [16] was 5.6 nM and 6.5 nM, the Kd [17] was 4 nM and 4.4 nM and the Kd [18] was 3.4 nM and 3.3 nM. For the same substance, the Kd [19] was 3 nM, the Kd [20] was 3.2 nM and 3.3 nM and the Kd [21] was 2.9 nM and 3 nM. For the same substance, the Kd [22] was 0.71 nM and 0.72 nM, the Kd [23] was 6.3 nM and 6.5 nM and the Kd [24] was 2.4 nM and 2.3 nM. For the same substance, the Kd [25] was 86 nM and 88 nM, the Kd [26] was 3.6 nM and 3.7 nM and the Kd [27] was 3.2 nM and 3.4 nM. The Kd [28] was 14 nM and 15 nM, the Kd [29] was 0.026 nM and 0.03 nM and the Kd [30] was 7.4 nM and 8.6 nM. The Kd [31] was 3 nM and 3.4 nM, the Kd [32] was 2.6 nM and 2.7 nM and the Kd [33] was 38 nM. For the same substance, the Kd [34] was 2 nM and 2.1 nM, the Kd [35] was 2.7 nM and 2.5 nM and the Kd [36] was 16 nM and 15 nM. For the same substance, the Kd [37] was 3.7 nM and 4.4 nM, the Kd [38] was 4.5 nM and 3.8 nM and the Kd [39] was 360 nM and 75 nM. For the same substance, the Kd [40] was 5.6 nM and 5 nM, the Kd [41] was 9.5 nM and 8.6 nM and the Kd [42] was 7.9 nM and 8.5 nM. For the same substance, the Kd [43] was 2.8 nM and 3 nM and 2.9 nM, the Kd [44] was 2.3 nM and 2.2 nM and the Kd [45] was 32 nM and 14 nM. The Kd [46] was 2.5 nM and 2.8 nM, the Kd [47] was 1.4 nM and 1.6 nM and the Kd [48] was 5.3 nM and 4.2 nM. The Kd [49] was 6 nM and 6.3 nM, the Kd [50] was 7 nM and 7.9 nM and the Kd [51] was 2.7 nM and 3.1 nM and 2.6 nM. For the same substance, the Kd [52] was 1.4 nM and 2 nM.

Reference: publication PMC3486911 (PLoS Pathogens, 2012)
